# Assay results: patent US7314747B1, “SMRT co-repressors, transcriptional co-repressors that interact with nuclear hormone receptors” (The Salk Institute for Biological Studies, priority 1995, dated 2008)
# T1: E52-RAR interaction (Homo sapiens, UniProt P10276)
# T1 construct: hRAR (amino acids 186-462); expressed in transfected cells; host or cells: Y190 yeast cells
# T1 sequence (P10276 186-462): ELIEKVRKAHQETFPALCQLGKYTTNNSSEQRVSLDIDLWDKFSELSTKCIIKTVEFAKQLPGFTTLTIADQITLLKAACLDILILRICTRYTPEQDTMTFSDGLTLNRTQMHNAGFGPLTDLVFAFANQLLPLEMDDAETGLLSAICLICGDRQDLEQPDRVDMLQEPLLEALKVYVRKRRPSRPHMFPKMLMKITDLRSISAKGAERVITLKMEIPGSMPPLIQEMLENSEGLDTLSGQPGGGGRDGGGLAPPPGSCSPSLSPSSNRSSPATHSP
# T2: EcR A483T (Drosophila, UniProt P34021 1-878)
# T2 construct: CMV vector, cotransfected with VP16-USP; also called repression-defective EcR allele
# T2 sequence (looked up): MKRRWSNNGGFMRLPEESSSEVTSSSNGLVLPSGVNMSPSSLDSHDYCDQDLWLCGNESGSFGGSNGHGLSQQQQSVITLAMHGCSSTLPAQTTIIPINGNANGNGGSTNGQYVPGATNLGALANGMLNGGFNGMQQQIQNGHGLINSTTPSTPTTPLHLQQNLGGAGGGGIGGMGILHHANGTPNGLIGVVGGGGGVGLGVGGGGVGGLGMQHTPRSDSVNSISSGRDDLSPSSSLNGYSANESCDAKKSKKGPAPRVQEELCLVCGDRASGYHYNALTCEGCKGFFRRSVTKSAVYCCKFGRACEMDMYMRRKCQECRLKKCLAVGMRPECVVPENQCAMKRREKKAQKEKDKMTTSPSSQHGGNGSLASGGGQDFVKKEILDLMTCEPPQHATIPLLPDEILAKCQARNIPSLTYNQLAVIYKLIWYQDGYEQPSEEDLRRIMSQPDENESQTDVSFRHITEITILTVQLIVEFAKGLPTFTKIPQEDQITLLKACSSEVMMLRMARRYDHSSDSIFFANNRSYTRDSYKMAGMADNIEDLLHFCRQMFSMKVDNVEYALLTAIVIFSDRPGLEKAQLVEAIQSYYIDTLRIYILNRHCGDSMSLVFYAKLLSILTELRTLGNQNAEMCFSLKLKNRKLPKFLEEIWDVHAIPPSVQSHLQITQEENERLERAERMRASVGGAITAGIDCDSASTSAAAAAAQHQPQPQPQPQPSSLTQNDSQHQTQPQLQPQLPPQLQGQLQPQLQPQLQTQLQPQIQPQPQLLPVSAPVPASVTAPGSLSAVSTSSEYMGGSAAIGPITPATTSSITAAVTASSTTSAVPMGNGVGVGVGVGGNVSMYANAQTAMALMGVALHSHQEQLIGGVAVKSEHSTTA
# B1: TR160 (rTRα Pro 160->Arg mutant, full length) (receptor, rat (printed as rTRα), UniProt P63059 1-492, looked up)
# chain: MEQKPSKVECGSDPEENSARSPDGKRKRKNGQCPLKSSMSGYIPSYLDKDEQCVVCGDKATGYHYRCITCEGCKGFFRRTIQKNLHPTYSCKYDSCCVIDKITRNQCQLCRFKKCIAVGMAMDLVLDDSKRVAKRKLIEQNRERRRKEEMIRSLQQRPERTPEEWDLIHVATEAHRSTNAQGSHWKQRRKFLPDDIGQSPIVSMPDGDKVDLEAFSEFTKIITPAITRVVDFAKKLPMFSELPCEDQIILLKGCCMEIMSLRAAVRYDPESDTLTLSGEMAVKREQLKNGGLGVVSDAIFELGKSLSAFNLDDTEVALLQAVLLMSTDRSGLLCVDKIEKSQEAYLLAFEHYVNHRKHNIPHFWPKLLMKVTDLRMIGACHASRFLHMKVECPTELFPPLFLEVFEDQEV
# notes: mature; 35S-labelled probe; also called rTRα R160 mutant; TR160 mutant
# B2: m-SMRTβ (amino acids 1 to 813): construct containing the entire amino terminus of m-SMRTβ (protein, UniProt Q9WU42 1-813, looked up, fragment)
# chain: MSGSTQPVAQTWRAAEPRYPPHGISYPVQIARSHTDVGLLEYQHHPRDYTSHLSPGSIIQPQRRRPSLLSEFQPGSERSQELHLRPESRTFLPELGKPDIEFTESKRPRLELLPDTLLRPSPLLATGQPSGSEDLTKDRSLAGKLEPVSPPSPPHADPELELAPSRLSKEELIQNMDRVDREITMVEQQISKLKKKQQQLEEEAAKPPEPEKPVSPPPIESKHRSLVQIIYDENRKKAEAAHRILEGLGPQVELPLYNQPSDTRQYHENIKINQAMRKKLILYFKRRNHARKQWEQRFCQRYDQLMEAWEKKVERIENNPRRRAKESKVREYYEKQFPEIRKQRELQERMQSRVGQRGSGLSMSAARSEHEVSEIIDGLSEQENLEKQMRQLAVIPPMLYDADQQRIKFINMNGLMDDPMKVYKDRQVTNMWSEQERDTFREKFMQHPKNFGLIASFLERKTVAECVLYYYLTKKNENYKSLVRRSYRRRGKSQQQQQQQQQQQQQQMARSSQEEKEEKEKEKEADKEEEKQDAENEKEELSKEKTDDTSGEDNDEKEAVASKGRKTANSQGRRKGRITRSMANEANHEETATPQQSSELASMEMNESSRWTEEEMETAKKGLLEHGRNWSAIARMVGSKTVSQCKNFYFNYKKRQNLDEILQQHKLKMEKERNARRKKKKTPAAASEETAFPPAAEDEEMEASGASANEEELAEEAEASQASGNEVPRVGECSGPAAVNNSSDTESVPSPRSEATKDTGPKPTGTEALPAATQPPVPPPEEPAVAPAEPSPVPDASGPPSPEPSPSPAAPPA
# modifications: SMRTbeta
# B3: Gal4-c-SMRT (aa 981 to C terminus) (other)
# chain: MKLLSSIEQACDICRLKKLKCSKEKPKCAKCLKNNWECRYSPKTKRSPLTRAHLTEVESRLERLEQLFLLIFPREDLDMILKMDSLQDIKALLTGLFVQDNVNKDAVTDRLASVETDMPLTLRQHRISATSSSEESSNKGQRQLTVSAPHHASPDPPAPPASASDPHREKTQSKPFSIQELELRSLGYHGSSYSPEGVEPVSPVSSPSLTHDKGLPKHLEELDKSHLEGELRPKQPGPVKLGGEAAHLPHLRPLPESQPSSSPLLQTAPGVKGHQRVVTLAQHISEVITQDYTRHHPQQLSAPLPAPLYSFPGASCPVLDLRRPPSDLYLPPPDHGAPARGSPHSEGGKRSPEPNKTSVLGGGEDGIEPVSPPEGMTEPGHSRSAVYPLLYRDGEQTEPSRMGSKSPGNTSQPPAFFSKLTESNSAMVKSKKQEINKKLNTHNRNEPEYNISQPGTEIFNMPAITGTGLMTYRSQAVQEHASTNMGLEAIIRKALMGGGKAKVSGRPSSRKAKSPAPGLASGDRPPSVSSVHSEGDCNRRTPLTNRVWEDRPSSAGSTPFPYNPLIMRLQAGVMASPPPPGLPAGSGPLAGPHHAWDEEPKPLLCSQYETLSDSE
# notes: also called vertebrate corepressor
# B4: v-erbA (naturally occurring oncogene, oncogenic TR variant) (receptor)
# chain: REEQVTSEQAKFWLGLGGGRVSPPGPECIEKPATERRIDKGEEMGETTVQRDAKMAPEKMATPKTVGTSCYQCGTATGCNCVTASAPPPPYVGSGLYPSLAGAGEQGQGGDTPRGAEQPRAEPGHAGQAPGPALTDWARIREELASTGPPVVAMPVVIKTEGPAWTPLEPEDTRWLDGKHKRKSSQCLVKSSMSGYIPSCLDKDEQCVVCGDKATGYHYRCITCEGCKSFFRRTIQKNLHPTYSCTYDGCCVIDKITRNQCQLCRFKKCISVGMAMDLVLDDSKRVAKRKLIEENRERRRKEEMIKSLQHRPSPSAEEWELIHVVTEAHRSTNAQGSHWKQRRKFLLEDIGQSPMASMLDGDKVDLEAFSEFTKIITPAITRVVDFAKNLPMFSELPCEDQIILLKGCCMEIMSLRAAVRYDPESETLTLSGEMAVKREQLKNGGLGVVSDAIFDLGKSLSAFNLDDTEVALLQAVLLMSSDRTGLICVDKIEKCQESYLLAFEHYINYRKHNIPHFWSKLLMKVADLRMIGAYHASRFLHMKVECPTELSPQEV
# Columns and labels:
# E52-RAR interaction = biological target: T1, E52-RAR interaction; assay: Yeast two-hybrid assay, E52-RAR interaction; assay type: cell-based; conditions: 3 μM ligand
# Protocol: Transformants were selected onto DO-Leu-Trp-His plates containing 40 mM 3-aminotriazole (Sigma) for 3-4 days. Surviving yeast colonies were picked as primary positives and restreaked on selection plates to isolate single clones. Activation domain plasmids were rescued from the selected positive transformants for further analysis. Each clone was evaluated by testing its potential interaction with several other nuclear receptors using the yeast two-hybrid assays. […] Quantitative liquid assay of β-galactosidase was performed on positive clones 16 hr after treating the yeast cells with no ligand, or with 3 μM ligand.
# [1] = biological target: GST-SMRT (GST fusion of the C-SMRT encoded by the yeast two hybrid clone) (human) (UniProt Q9Y618); assay: far-western: 35S-labelled receptor on immobilized GST-SMRT, phosphoimager
# [2] = biological target: T3, GST-SMRT (GST fusion of the C-SMRT encoded by the yeast two hybrid clone) (human, UniProt Q9Y618 2000-2514); assay: far-western: 35S-labelled receptor on GST-SMRT, phosphoimager
# T3 construct: also called immobilized GST-SMRT; not shown: glutathione S-transferase (GST) tag
# [3] = system: GAL4-TK-luciferase reporter in CV-1 cells; assay: GAL4-SMRT amino terminus fusions cotransfected with GAL4-TK-luciferase reporter in CV-1 cells; assay type: cell-based, Monkey; conditions: luciferase normalized to β-galactosidase
# Protocol: Experiments were performed using the plasmids pCMX-GAL4 DBD and pMH100-TK-luc (Nagy et al., (1997), supra). Standard PCR amplifications were used to generate GAL4 fusion constructs. All constructs were verified by double-stranded sequencing to confirm identity and reading frame.
# Monkey CV-1 cells were grown in DMEM supplemented with 10% resin-charcoal stripped fetal bovine serum (FBS), 50 units/ml of penicillin G, and 50 μg/ml of streptomycin sulfate at 37° C. in 7% CO2. V-1 cells (60-70% confluence, 48-well plate) were cotransfected with 16 ng of pCMX-GAL4, 100 ng of pMH100-TK-luc, and 100 ng of pCMX-β galactosidase in 200 μl of DMEM containing 10% super-stripped fetal calf serum (FCS) by the N-(1-(2,3-dioleoyloxy)propyl)-N,N,N-trimethylammonium methylsulfate (DOTAP)-mediated procedure (Nagy et al., (1997), supra). The amount of DNA in each transfection was kept constant by addition of pCMX. After 24 hr, the medium was replaced; cells were harvested and assayed for luciferase activity 36 to 48 hr after transfection. […]
# Based on the high degree of identity between regions of the SMRT amino terminus and the corresponding N-CoR region, the ability of regions in the SMRT amino terminus to act in transcriptional repression was examined. […] Repression was determined relative to the basal activity of the reporter in the presence of the GAL-DBD alone.
# EcR A483T = biological target: T2, EcR A483T; assay: mammalian two-hybrid in CV-1 cells (with VP16-USP)
molecule,measurement,setting,value
"CC1=C(/C=C/C(C)=C/C=C/C(C)=C/C(=O)O)C(C)(C)CCC1 [atRA, all-trans retinoic acid]",dissociation of the interaction between E52 and RAR by ligand,E52-RAR interaction,can be dissociated
RAR403 (carboxy-terminal deletion mutant of RAR) (from UniProt P10276 1-403) (receptor),fold interaction relative to wild type RAR (phosphoimager),[1],4 fold
B1,fold lower signal relative to rTRα (phosphoimager),[2],10 fold lower
B2,repression relative to basal reporter activity with GAL-DBD alone,[3],about 2.6 fold
B3,binding result,EcR A483T,no binding
B4,fold interaction relative to hTRβ (phosphoimager),[2],18 fold
